Article PMC2196183
“And” between values parts separate entries of the source, which are not always exact repeats. Identical values can stand only once.

Target: GSK3 binding protein (GBP) on beads (Xenopus)
Assay: pull-down

fold increase in binding with 1 μM CK1ε against buffer- or GSK3-treated extracts: 4 fold and 5 fold
B1: dishevelled (dsh), radiolabeled (natural protein)
chain: MAETKVIYHLDEEETPYLVKVPVPATDIRLRDFKAALGRGHAKYFFKAMDQDFGVVKEEISDDNAKLPCFNDRVVSWLASSEGSQPDSAPPAPATEVRPEPPPPVPPPIPPPPAERTSGIGDSRPPSFHPNVSGSTEQLDQDNESVISMRRDRVRRRESSEQAGVGRGVNGRTERHLSGYESSSTLLTSEIETSICDSEEDDTMSRFSSSTEQSSASRLLKRHRRRRKQRPPRLERTSSFSSVTDSTMSLNIITVTLNMEKYNFLGISIVGQSNERGDGGIYIGSIMKGGAVAADGRIEPGDMLLQVNDINFENMSNDDAVRVLRDIVHKPGPIVLTVAKCWDPSPQGYFTLPRNEPIHPIDPAAWVSHSAALSGSFPVYPGSASMSSMTSSTSVTETELSHALPPVSLFSLSVHTDLASVVKVMASPESGLEVRDRMWLKITIPNAFLGSDVVDWLYHHVEGFQDRREARKFASNLLKAGFIRHTVNKITFSEQCYYIFGDLTGCENYMTNLSLNDNDGSSGASDQDTLAPLPLPGASPWPLLPTFSYQYQAPHPYSTQPPAYHELSSYSYGMGSAGSQHSEGSRSSGSNRSDGGRGMQKDDRSGVAGVGGGDSKSGSGSESEYSTRSSIRRVGGGEAGPPSERSTSSRLPPHHPPSVHSYAAPGVPLSYNPMMLMMMPPPPLPPPGVCPPNSSVPPGAPPLVRDLASVPPELTATRQSFHMAMGNPSEFFVDVM
modifications: [35S]methionine label
